Assay results: patent US20240309103A1 (Regeneron, published 2024)

How the values were obtained:
[1] = molecular target: T1, mouse NPR1 extracellular domain expressed with a C-terminal mouse IgG2a (mNPR1-mFc) (mouse); assay: SPR, Tables 21 to 26
T1 chain: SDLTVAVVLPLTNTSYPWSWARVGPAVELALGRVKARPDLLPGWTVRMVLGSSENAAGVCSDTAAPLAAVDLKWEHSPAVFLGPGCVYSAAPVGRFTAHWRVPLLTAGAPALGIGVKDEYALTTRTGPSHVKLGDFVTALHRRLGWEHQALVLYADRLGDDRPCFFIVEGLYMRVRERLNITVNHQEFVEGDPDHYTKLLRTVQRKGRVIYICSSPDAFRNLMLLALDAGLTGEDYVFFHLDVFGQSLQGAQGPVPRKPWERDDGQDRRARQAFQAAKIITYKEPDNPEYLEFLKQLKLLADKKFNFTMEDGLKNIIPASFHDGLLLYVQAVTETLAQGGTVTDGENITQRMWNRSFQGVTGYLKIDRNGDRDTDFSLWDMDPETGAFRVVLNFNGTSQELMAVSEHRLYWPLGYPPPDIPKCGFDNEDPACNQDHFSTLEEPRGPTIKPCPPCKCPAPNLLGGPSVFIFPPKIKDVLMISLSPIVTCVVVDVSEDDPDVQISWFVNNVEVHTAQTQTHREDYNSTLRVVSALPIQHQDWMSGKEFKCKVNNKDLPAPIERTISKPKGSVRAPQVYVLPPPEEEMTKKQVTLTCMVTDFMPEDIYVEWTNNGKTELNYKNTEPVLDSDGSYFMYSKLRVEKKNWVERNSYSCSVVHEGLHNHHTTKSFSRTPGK
Protocol: (§1) Equilibrium dissociation constant (KD) for different NPR1 reagents binding to purified anti-NPR1 monoclonal antibodies (mAbs) were determined using a real-time surface plasmon resonance based Biacore 4000 biosensor. All binding studies were performed in 10 mM HEPES, 150 mM NaCl, 3 mM EDTA, and 0.05% v/v Surfactant Tween-20, pH 7.4 (HBS-ET) running buffer at 25° C. and 37° C. The Biacore CM5 sensor chip surface was first derivatized by amine coupling with either mouse anti-human Fc specific mAb (GE Healthcare, #BR100839) or goat anti-human Fcy specific polyclonal antibody (Jackson ImmunoResearch Laboratories, #BR-1008-39) to capture anti-NPR1 mAbs.

[2] = molecular target: T2, human NPR1 extracellular domain expressed with a C-terminal mouse IgG2a (hNPR1-mFc) (human); assay: SPR, mAb captured, 25 C; 25 C
T2 construct: also called hNPR1-Fc; human NPR1 dimer
T2 chain: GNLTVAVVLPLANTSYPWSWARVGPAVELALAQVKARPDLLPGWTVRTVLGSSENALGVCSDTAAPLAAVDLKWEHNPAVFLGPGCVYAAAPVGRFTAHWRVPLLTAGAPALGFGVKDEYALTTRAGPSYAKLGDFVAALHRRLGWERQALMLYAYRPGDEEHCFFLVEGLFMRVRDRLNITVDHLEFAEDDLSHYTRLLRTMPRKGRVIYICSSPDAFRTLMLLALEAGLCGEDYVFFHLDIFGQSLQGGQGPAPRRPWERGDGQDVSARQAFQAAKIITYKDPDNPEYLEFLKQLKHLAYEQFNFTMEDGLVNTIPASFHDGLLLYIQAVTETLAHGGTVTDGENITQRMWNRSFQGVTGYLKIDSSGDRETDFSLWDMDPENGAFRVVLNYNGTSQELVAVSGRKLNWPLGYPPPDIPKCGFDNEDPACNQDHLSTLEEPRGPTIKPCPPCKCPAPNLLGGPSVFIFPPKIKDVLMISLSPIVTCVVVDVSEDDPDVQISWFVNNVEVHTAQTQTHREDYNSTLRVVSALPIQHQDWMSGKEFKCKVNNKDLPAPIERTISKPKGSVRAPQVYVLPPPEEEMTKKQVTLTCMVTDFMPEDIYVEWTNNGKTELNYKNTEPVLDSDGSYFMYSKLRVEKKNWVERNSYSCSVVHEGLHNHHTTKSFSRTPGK
Protocol: as §1

[3] = molecular target: T3, human NPR1 extracellular domain expressed with a C-terminal myc-myc-hexahistidine (hNPR1-MMH) (human, UniProt P16066 33-473); assay: SPR, mAb captured, 37 C
T3 construct: also called hNPR.mmh; monomeric human NPR1
Procedure, shortened: (§2)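 Read-out is KD from real-time SPR (Biacore 4000). Purified mAbs sat on an anti-human Fc capture surface (mouse mAb or goat anti-Fcγ polyclonal) on CM5. Runs used HBS-ET: 10 mM HEPES, 150 mM NaCl, 3 mM EDTA, 0.05% Tween-20, pH 7.4.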

[4] = molecular target: T4, mouse NPR1 extracellular domain expressed with a C-terminal myc-myc-hexahistidine (mNPR1-MMH) (mouse, UniProt P18293 29-469); assay: SPR, mAb captured, 37 C
Procedure, shortened: as §2
Target sequence in this assay (P18293 other isoform, or with tags, fused parts or gaps): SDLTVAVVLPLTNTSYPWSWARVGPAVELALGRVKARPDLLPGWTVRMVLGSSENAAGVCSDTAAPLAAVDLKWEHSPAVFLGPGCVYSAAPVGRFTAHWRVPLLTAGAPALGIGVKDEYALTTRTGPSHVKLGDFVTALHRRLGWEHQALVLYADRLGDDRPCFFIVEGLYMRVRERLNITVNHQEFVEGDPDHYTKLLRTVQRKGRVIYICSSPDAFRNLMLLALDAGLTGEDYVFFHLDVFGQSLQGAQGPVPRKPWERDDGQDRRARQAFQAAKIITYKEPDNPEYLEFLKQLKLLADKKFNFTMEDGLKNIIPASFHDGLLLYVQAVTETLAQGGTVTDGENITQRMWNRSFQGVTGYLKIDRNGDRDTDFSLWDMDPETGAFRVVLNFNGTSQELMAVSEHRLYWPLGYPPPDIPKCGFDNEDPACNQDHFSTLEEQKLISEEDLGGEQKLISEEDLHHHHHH

[5] = molecular target: T5, monkey NPR1 extracellular domain expressed with a C-terminal myc-myc-hexahistidine (mfNPR1-MMH) (monkey, UniProt P16066 33-473 (human entry)); assay: SPR, mAb captured, 37 C
T5 construct: also called monomeric monkey NPR1
T5 chain: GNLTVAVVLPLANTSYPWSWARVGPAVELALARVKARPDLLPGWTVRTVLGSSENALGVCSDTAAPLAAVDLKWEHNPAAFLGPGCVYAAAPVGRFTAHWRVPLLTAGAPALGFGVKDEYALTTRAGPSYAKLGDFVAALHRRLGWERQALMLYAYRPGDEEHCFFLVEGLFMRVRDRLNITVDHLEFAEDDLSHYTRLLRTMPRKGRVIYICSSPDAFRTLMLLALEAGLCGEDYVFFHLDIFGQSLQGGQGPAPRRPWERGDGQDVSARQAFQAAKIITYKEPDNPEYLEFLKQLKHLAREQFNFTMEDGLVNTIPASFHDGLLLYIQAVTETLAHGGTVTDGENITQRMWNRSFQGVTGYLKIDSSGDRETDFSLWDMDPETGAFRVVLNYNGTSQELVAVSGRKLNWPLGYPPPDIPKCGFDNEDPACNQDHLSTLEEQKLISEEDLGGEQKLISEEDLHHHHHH
Procedure, shortened: as §2

[6] = molecular target: T3, human NPR1 extracellular domain …; assay: SPR, mAb captured, 25 C
Procedure, shortened: as §2
Target sequence in this assay (P16066 other isoform, or with tags, fused parts or gaps): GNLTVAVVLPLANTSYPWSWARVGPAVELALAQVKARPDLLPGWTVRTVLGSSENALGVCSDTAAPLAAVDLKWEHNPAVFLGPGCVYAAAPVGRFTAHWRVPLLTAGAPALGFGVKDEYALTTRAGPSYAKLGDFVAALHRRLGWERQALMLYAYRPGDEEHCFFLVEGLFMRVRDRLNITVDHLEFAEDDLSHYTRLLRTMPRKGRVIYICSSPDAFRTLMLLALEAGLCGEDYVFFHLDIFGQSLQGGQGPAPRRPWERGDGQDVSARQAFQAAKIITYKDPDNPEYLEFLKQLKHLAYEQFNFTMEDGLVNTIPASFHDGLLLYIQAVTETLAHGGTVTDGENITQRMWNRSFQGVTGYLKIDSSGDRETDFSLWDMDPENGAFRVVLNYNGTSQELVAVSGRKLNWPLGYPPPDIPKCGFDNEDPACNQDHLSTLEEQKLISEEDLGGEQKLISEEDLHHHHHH

[7] = molecular target: T4, mouse NPR1 extracellular domain …; assay: SPR, mAb captured, 25 C
Procedure, shortened: as §2

[8] = molecular target: T5, monkey NPR1 extracellular domain …; assay: SPR, mAb captured, 25 C
Procedure, shortened: as §2

B1: mAb25502 (antibody, V domains shown)
VH: QLQLQESGPGLVKPSETLSLTCTVSGGSISSSSYYWGWIRQPPGKGLEWIGSIYYSGSPYYIPSLKSRVTISVDTSKNQFSLKLSSVTAADTAMYYCARQGRGIARAGPFDYWGQGTLVTVSS
VL: DIQMTQSPSSLSASVGDRVTITCRASQGISNYLAWYQEKPGKVPKLLIYAASTLQSGVPSRFSGSGSGTDFTLTITSLQSEDVATYYCQKYNSAPPWTFGQGTKVEIK
[1]
  binding result: no binding
[2]
  Kd: 0.994 nM
  koff: 8.74e-05 s⁻¹
  kon: 87900 M⁻¹ s⁻¹
  t½: 2.2 h
[3]
  100 nM Ag Bound (RU): 4 RU
  binding result: no binding (tested: 100 nM)
[4]
  100 nM Ag Bound (RU): 0 RU
[5]
  100 nM Ag Bound (RU): 6 RU
[6]
  100 nM Ag Bound (RU): 2 RU
[7]
  100 nM Ag Bound (RU): 0 RU
  binding result: no binding (tested: 100 nM)
[8]
  100 nM Ag Bound (RU): 3 RU
  binding result: no binding (tested: 100 nM)
